{"source": "patent US20100273186A1", "about": "“SPLIT MUTANT HYDROLASE FUSION REPORTER AND USES THEREOF” (Promega Corporation, priority 2007, published 2010)", "experiment_in_all_cases": "cell-based or functional assay", "key": {"[1]": {"molecular_target": "FKBP-hRL (92-311) (UniProt P62942)", "sequence (P62942 other isoform, or with tags, fused parts or gaps)": "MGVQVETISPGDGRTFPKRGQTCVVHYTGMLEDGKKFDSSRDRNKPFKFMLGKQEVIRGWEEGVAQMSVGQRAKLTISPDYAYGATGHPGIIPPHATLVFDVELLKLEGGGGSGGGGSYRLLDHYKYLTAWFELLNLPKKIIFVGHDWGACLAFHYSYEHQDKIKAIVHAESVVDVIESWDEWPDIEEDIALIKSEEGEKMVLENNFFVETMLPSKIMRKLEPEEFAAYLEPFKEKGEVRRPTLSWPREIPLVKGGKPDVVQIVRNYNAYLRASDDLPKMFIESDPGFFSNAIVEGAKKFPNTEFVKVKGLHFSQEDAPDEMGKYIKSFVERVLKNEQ"}, "[2]": {"molecular_target": "FKBP-hRL (112-311) (UniProt P62942)", "sequence (P62942 other isoform, or with tags, fused parts or gaps)": "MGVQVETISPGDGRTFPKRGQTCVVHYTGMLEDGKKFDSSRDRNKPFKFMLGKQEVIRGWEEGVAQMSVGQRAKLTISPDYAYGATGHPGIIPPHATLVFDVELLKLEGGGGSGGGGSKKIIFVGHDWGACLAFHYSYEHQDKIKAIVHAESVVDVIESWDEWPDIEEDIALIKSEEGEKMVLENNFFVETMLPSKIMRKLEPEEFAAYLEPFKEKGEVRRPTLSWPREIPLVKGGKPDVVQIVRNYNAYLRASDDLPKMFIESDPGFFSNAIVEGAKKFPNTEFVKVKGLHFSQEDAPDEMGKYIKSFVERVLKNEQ"}, "[3]": {"molecular_target": "hRL (112-311)-FKBP (UniProt P27652)", "sequence (P27652 other isoform, or with tags, fused parts or gaps)": "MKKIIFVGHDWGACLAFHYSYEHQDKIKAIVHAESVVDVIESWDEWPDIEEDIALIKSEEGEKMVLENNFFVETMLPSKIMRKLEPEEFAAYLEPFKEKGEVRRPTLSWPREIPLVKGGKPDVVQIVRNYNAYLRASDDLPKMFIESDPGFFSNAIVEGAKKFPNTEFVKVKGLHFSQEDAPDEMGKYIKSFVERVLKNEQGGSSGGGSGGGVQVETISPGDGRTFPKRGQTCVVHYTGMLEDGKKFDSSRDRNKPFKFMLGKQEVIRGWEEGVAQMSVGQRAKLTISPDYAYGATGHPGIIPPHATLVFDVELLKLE"}, "[4]": {"molecular_target": "hRL (92-311)-FKBP (UniProt P27652)", "sequence (P27652 other isoform, or with tags, fused parts or gaps)": "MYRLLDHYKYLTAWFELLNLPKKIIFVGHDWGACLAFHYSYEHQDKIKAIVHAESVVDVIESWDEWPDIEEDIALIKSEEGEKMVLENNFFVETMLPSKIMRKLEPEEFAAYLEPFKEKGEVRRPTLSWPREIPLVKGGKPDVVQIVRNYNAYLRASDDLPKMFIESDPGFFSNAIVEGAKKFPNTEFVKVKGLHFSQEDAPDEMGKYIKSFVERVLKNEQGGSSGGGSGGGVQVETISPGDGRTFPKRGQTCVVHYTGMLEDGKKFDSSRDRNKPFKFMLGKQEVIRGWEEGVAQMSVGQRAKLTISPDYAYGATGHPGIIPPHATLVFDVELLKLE"}}}
{"substance": "hRL (1-91)-FRB (from UniProt P27652 1-91; P42345 2021-2113)", "values": [{"measurement": "Renilla luciferase activity (PCA, TnT lysate) (fold (+rapamycin against no rapamycin))", "setting": "[1]", "result": 8.6}]}
{"substance": "hRL (1-111)-FRB (from UniProt P27652 1-111; P42345 2021-2113)", "values": [{"measurement": "Renilla luciferase activity (PCA, TnT lysate) (fold (+rapamycin against no rapamycin))", "setting": "[2]", "result": 81}]}
{"substance": "FRB-hRL (1-111) (from UniProt P42345 2021-2113; P27652 1-111)", "values": [{"measurement": "Renilla luciferase activity (PCA, TnT lysate) (fold (+rapamycin against no rapamycin))", "setting": "[2]", "result": 5.3}, {"measurement": "Renilla luciferase activity (PCA, TnT lysate) (fold (+rapamycin against no rapamycin))", "setting": "[3]", "result": 46}]}
{"substance": "FRB-hRL (1-91) (from UniProt P42345 2021-2113; P27652 1-91)", "values": [{"measurement": "Renilla luciferase activity (PCA, TnT lysate) (fold (+rapamycin against no rapamycin))", "setting": "[4]", "result": 134}]}
